± gives the standard deviation of the averaged measurements.
test system: ATP; experiment: switch fluorescence ratio, 500 uM ATP over buffer (Cy3 cluster intensity, sum of 5 cycles each) (fold (ratio)); higher = stronger signal-on switching upon ATP binding; sequences stand for … in TCGTCGGCAGCGTCAGATGTGTATAAGAGACAGTTTTTTTTTTTTTTTTTTTTTTTTT…TC; details: aptamer strand: ATP DNA aptamer (quencher-CACCTGGGGGAGTATTGCGGAGGAAGG + anchor), 100 nM annealed; ATP concentration: 500 uM
How it was run: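 For every switch-domain sequence, the fluorescence ratio is the mean of per-cluster values, each being summed target-cycle Cy3 intensity over summed buffer-cycle Cy3 intensity. Clusters outside 100-1000 RFU were excluded. On a modified Illumina MiSeq flow-cell, the Cy3-labelled switching-strand clusters were annealed to 100 nM quencher-labelled ATP aptamer, imaged in selection buffer and then after 15 min with 500 uM ATP at 22 °C. Five such cycles were run, with NaOH stripping and re-annealing between them.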
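Also: ATP exposure 15 min at 22 °C before imaging.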

In order of rising switch fluorescence ratio:
1. TTGCTTTGTA  0.943 ± 0.018
2. TTGGCCTAAA  0.954 ± 0.04
3. TTGGTGTGTG  0.958 ± 0.022
4. TTGGGTCTGG  0.965 ± 0.02
5. TTGGGGTT  0.9662 ± 0.0019
6. TTGCGGGCCG  0.967 ± 0.068
7. TTGGGCGCAG  0.967 ± 0.019
8. TTGCTTCGGG  0.968 ± 0.028
9. TTGGGGGTCT  0.968 ± 0.044
10. TTGGGAGGCG  0.97 ± 0.039
11. TTGGCCTTAG  0.972 ± 0.015
12. TTGGTGTTAG  0.973 ± 0.031
13. TTGCCTAAGC  0.974 ± 0.016
14. TTGGTGCCGC  0.975 ± 0.017
15. TTGGTGCGGA  0.975 ± 0.056
16. TTGGTTAGCC  0.975 ± 0.078
17. TTGGAGTTGG  0.976 ± 0.043
18. TTGGTGATTG  0.976 ± 0.014
19. TTGCTGGAAG  0.978 ± 0.035
20. TTGGAGGGCT  0.978 ± 0.0032
21. TTGGGTATAT  0.979 ± 0.037
22. TTGGCGGGAC  0.9819 ± 0.0036
23. TTGGTAGAAA  0.982 ± 0.024
24. TTGATTTATA  0.983 ± 0.042
25. TTGCTGTCGG  0.985 ± 0.038
26. TTGGAAAGGG  0.985 ± 0.016
27. TTGGGAAGTA  0.985 ± 0.016
28. TTGGGATGTG  0.986 ± 0.053
29. TTGGTACGGA  0.986 ± 0.019
30. TTGGGCGTGT  0.987 ± 0.021
31. TTGGCAAATG  0.988 ± 0.025
32. TTGGCGTCCG  0.988 ± 0.047
33. TTGGGTTCAC  0.988 ± 0.01
34. TTGGTATGAC  0.988 ± 0.076
35. TTGGACATGT  0.989 ± 0.027
36. TTGGGGGAGG  0.989 ± 0.021
37. TTGGGTATAA  0.989 ± 0.03
38. TTGGTATTTT  0.989 ± 0.018
39. TTGGTGAACG  0.989 ± 0.024
40. TTGGTGGGGG  0.989 ± 0.023
41. TTGATTCGT  0.99 ± 0.02
42. TTGGGGAAAC  0.99 ± 0.029
43. TTGGGTATGC  0.99 ± 0.046
44. TTGCTTGCGG  0.991 ± 0.041
45. TTGCTTTTAA  0.991 ± 0.013
46. TTGGGCCGGG  0.991 ± 0.02
47. TTGGAATTGA  0.992 ± 0.012
48. TTGGTGTTGC  0.9916 ± 0.0057
49. TTGCTAGTTG  0.994 ± 0.036
50. TTGGGTCGTT  0.994 ± 0.014
51. TTGGGTGAGC  0.994 ± 0.024
52. TTGATCAACG  0.995 ± 0.014
53. TTGATGGGTG  0.995 ± 0.015
54. TTGGATTCAT  0.995 ± 0.016
55. TTGATCAGGC  0.996 ± 0.016
56. TTGCCAGTGT  0.996 ± 0.028
57. TTGCGAGTC  0.996 ± 0.062
58. TTGCTTACTT  0.996 ± 0.019
59. TTGGGCTTTT  0.996 ± 0.017
60. TTGATAAAGT  0.997 ± 0.0043
61. TTGGGACGGT  0.9972 ± 0.0076
62. TTGGGGACGA  0.997 ± 0.032
63. TTGGGGGGGC  0.997 ± 0.039
64. TTGGTATGAG  0.997 ± 0.013
65. TTGGTGTGGC  0.9967 ± 0.0092
66. TTGGCAGGGA  0.998 ± 0.018
67. TTGGCGGGCA  0.998 ± 0.027
68. TTGGTTCATG  0.998 ± 0.015
69. TTGGTTGAAT  0.998 ± 0.011
70. TTGATCGGTG  0.999 ± 0.023
71. TTGGGTGGC  0.999 ± 0.011
72. TTGGTAAATG  0.999 ± 0.012
73. TTGGTATAA  0.999 ± 0.021
74. TTGGTATCTT  0.999 ± 0.025
75. TTGGTTAAGA  0.999 ± 0.04
76. TTGATCACTT  1.001 ± 0.005
77. TTGATGAAAA  1 ± 0.038
78. TTGATTTGCA  0.99989 ± 0.00088
79. TTGATTTGGT  1 ± 0.011
80. TTGCAAGGCG  1 ± 0.062
81. TTGCTCAACT  1 ± 0.026
82. TTGCTGTTGC  1.001 ± 0.0095
83. TTGGAAGTGG  0.9995 ± 0.0088
84. TTGGACAGGG  1 ± 0.02
85. TTGGAGCGTG  1.003 ± 0.0015
86. TTGGCCGGAG  1.001 ± 0.0084
87. TTGGCTAATT  1 ± 0.034
88. TTGGGCCCAA  1 ± 0.041
89. TTGGGCCTGA  1.002 ± 0.0032
90. TTGGGCTAGG  1 ± 0.0054
91. TTGGGGGG  1.004 ± 0.0069
92. TTGGTAAAGA  1 ± 0.013
93. TTGGTGTGTA  1.002 ± 0.0089
94. TTGTAACCAG  1.0005 ± 0.001
95. TTGATACGTG  1.01 ± 0.058
96. TTGATCTGGT  1.01 ± 0.027
97. TTGATGCGTT  1.01 ± 0.015
98. TTGATTCG  1.015 ± 0.0037
99. TTGATTTAAA  1.01 ± 0.0047
100. TTGCAAGGTT  1.01 ± 0.017
101. TTGCTAGGGA  1.01 ± 0.055
102. TTGGATGCCT  1.01 ± 0.047
103. TTGGATTATG  1.01 ± 0.012
104. TTGGCCTCGA  1.01 ± 0.039
105. TTGGCGAGGG  1.008 ± 0.0081
106. TTGGCGTATT  1.01 ± 0.071
107. TTGGGAGGAG  1.01 ± 0.025
108. TTGGGATTAG  1.01 ± 0.029
109. TTGGGGTATG  1.01 ± 0.012
110. TTGGGTAATG  1.01 ± 0.027
111. TTGGGTGTGG  1.01 ± 0.037
112. TTGGGTTGGT  1.01 ± 0.049
113. TTGGTCCGTG  1.01 ± 0.071
114. TTGGTGCTGG  1.01 ± 0.027
115. TTGGTGTTTA  1.01 ± 0.022
116. TTGGTTACGG  1.014 ± 0.0041
117. TTGGTTATCT  1.01 ± 0.035
118. TTGGTTCATT  1.01 ± 0.021
119. TTGGTTTAAT  1.01 ± 0.034
120. TTGTAAACGA  1.01 ± 0.042
121. TTGCAAGAGG  1.02 ± 0.024
122. TTGCTGATGC  1.02 ± 0.039
123. TTGCTTAAAC  1.02 ± 0.025
124. TTGCTTACGG  1.02 ± 0.013
125. TTGCTTGGGC  1.02 ± 0.04
126. TTGGACTATA  1.02 ± 0.043
127. TTGGAGGAAT  1.02 ± 0.014
128. TTGGATGTGG  1.02 ± 0.022
129. TTGGCGGCTT  1.02 ± 0.032
130. TTGGGGACTT  1.02 ± 0.07
131. TTGGGGCTTT  1.02 ± 0.056
132. TTGGGGGAGA  1.02 ± 0.038
133. TTGGGGGGGA  1.02 ± 0.13
134. TTGGGTACAT  1.02 ± 0.011
135. TTGGGTACGT  1.02 ± 0.026
136. TTGGGTTGGC  1.02 ± 0.043
137. TTGGTAGTTT  1.022 ± 0.0061
138. TTGGTCCGTT  1.02 ± 0.045
139. TTGGTGATGA  1.02 ± 0.023
140. TTGGTTTCCT  1.02 ± 0.038
141. TTGCACAAAA  1.033 ± 0.0078
142. TTGCTCTAGC  1.03 ± 0.018
143. TTGGATACGT  1.03 ± 0.091
144. TTGGCGTAAG  1.03 ± 0.045
145. TTGGGGCTTA  1.03 ± 0.038
146. TTGGGGTATA  1.03 ± 0.055
147. TTGGGGTTTA  1.03 ± 0.026
148. TTGGGTAGCC  1.03 ± 0.032
149. TTGGGTAGGA  1.03 ± 0.04
150. TTGGGTCCGG  1.03 ± 0.038
151. TTGATATTTT  1.04 ± 0.096
152. TTGATTTTGA  1.04 ± 0.037
153. TTGCCACTCT  1.04 ± 0.064
154. TTGCGGGCAG  1.04 ± 0.032
155. TTGCTCGTCG  1.04 ± 0.0046
156. TTGGAAGTC  1.04 ± 0.026
157. TTGGAATGGT  1.04 ± 0.029
158. TTGGACTGGT  1.04 ± 0.039
159. TTGGATCAAC  1.04 ± 0.051
160. TTGGCCGGGT  1.042 ± 0.0059
161. TTGGGGAGCT  1.04 ± 0.014
162. TTGGGGCCGT  1.04 ± 0.047
163. TTGGTAATGG  1.04 ± 0.051
164. TTGATGGTGC  1.05 ± 0.038
165. TTGGAGAAAT  1.05 ± 0.025
166. TTGGATACCT  1.05 ± 0.13
167. TTGGGCATTT  1.05 ± 0.089
168. TTGGGGTAGA  1.05 ± 0.031
169. TTGATTAAGA  1.06 ± 0.078
170. TTGATTAGGC  1.06 ± 0.029
171. TTGGATTGAC  1.06 ± 0.025
172. TTGGCATACG  1.06 ± 0.034
173. TTGGCATCAC  1.06 ± 0.045
174. TTGATGCAA  1.07 ± 0.028
175. TTGGAGATAG  1.07 ± 0.1
176. TTGGCATATG  1.07 ± 0.085
177. TTGGGGATAA  1.07 ± 0.09
178. TTGCCTTTTG  1.08 ± 0.16
179. TTGCGTTTCT  1.08 ± 0.086
180. TTGGAGTACT  1.09 ± 0.24
181. TTGGATAGTT  1.09 ± 0.16
182. TTGGGGCCAG  1.09 ± 0.12
183. TTGGGGGATA  1.09 ± 0.24
184. TTGCGCCCCC  1.104 ± 0.011
185. TTGGAAAGGT  1.1 ± 0.16
186. TTGGGGATAG  1.11 ± 0.17
187. TTGCTCGCTC  1.16 ± 0.084
188. TTGATTCAAT  1.17 ± 0.33
189. TTGCCGGGTT  1.17 ± 0.17
190. TTGCGTTTCC  1.19 ± 0.23
191. TTGCTATACG  1.2 ± 0.13
192. TTGATGGCGA  1.22 ± 0.3
193. TTGATCCGAC  1.35 ± 0.25
194. TTGCAGCATG  1.51 ± 0.68
195. TTGCTCCCAC  1.62 ± 0.81
196. TTGATCCGCT  1.74 ± 0.47
197. TTGGTAGCAA  1.81 ± 0.41
198. TTGCAGTTC  1.88 ± 1
199. TTGGAGTATA  1.93 ± 0.28
200. TTGGCATACT  2.64 ± 2.2
